PMC6555819, “Comprehensive study of nuclear receptor DNA binding provides a revised framework for understanding receptor specificity”

Tests used:
Experiment in all cases: no ligand; PBM; 270 nM : 90 nM RXRa; PBS pH 7.4, 2% milk, 0.02% Triton X-100, 1 mM DTT, BSA, 0.4 mg/ml salmon testes DNA
[1] = target: VDR:RXRa (Homo sapiens, UniProt P11473;P19793 full;full); settings: tags: His kept;His cleaved; copies: 1;1; label: surface-attached array probe
Summary of the method: (§1)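 Binding z-scores take random background probes as their reference. They come from custom Agilent 4×180K protein-binding microarrays incubated 1 h with ligand-free nuclear receptor dimers, with antibodies against each partner (one per run) detecting binding. Scanned fluorescence was regression-normalized.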

[2] = target: PPARa:RXRa (Homo sapiens, UniProt Q07869;P19793 full;full); settings: tags: GST kept;His cleaved; copies: 1;1; label: surface-attached array probe
Summary of the method: as §1

[3] = target: FXR:RXRa (Homo sapiens, UniProt Q96RI1;P19793 full;full); settings: tags: His kept;His cleaved; copies: 1;1; label: surface-attached array probe
Summary of the method: as §1

[4] = target: RARb:RXRa (Homo sapiens, UniProt P10826;P19793 full;full); settings: tags: His kept;His cleaved; copies: 1;1; label: surface-attached array probe
Summary of the method: as §1

[5] = target: RARg:RXRa (Homo sapiens, UniProt P13631;P19793 full;full); settings: tags: His kept;His cleaved; copies: 1;1; label: surface-attached array probe
Summary of the method: as §1

Sequence of PPARa:RXRa (Q07869 whole entry, chain 1 of 2): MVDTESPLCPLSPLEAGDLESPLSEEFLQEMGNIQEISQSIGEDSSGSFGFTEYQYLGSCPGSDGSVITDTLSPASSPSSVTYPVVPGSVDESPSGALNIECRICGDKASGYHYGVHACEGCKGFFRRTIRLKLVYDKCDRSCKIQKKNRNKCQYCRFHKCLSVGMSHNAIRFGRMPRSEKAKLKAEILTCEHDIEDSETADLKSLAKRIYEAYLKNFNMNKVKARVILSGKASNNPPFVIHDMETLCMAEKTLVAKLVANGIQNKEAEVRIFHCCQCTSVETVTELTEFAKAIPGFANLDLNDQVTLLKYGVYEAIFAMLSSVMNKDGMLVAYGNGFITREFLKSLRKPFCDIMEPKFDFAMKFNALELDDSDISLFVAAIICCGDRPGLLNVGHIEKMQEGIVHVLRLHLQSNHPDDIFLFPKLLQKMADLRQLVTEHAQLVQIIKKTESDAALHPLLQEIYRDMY
Sequence of PPARa:RXRa (P19793 whole entry, chain 2 of 2): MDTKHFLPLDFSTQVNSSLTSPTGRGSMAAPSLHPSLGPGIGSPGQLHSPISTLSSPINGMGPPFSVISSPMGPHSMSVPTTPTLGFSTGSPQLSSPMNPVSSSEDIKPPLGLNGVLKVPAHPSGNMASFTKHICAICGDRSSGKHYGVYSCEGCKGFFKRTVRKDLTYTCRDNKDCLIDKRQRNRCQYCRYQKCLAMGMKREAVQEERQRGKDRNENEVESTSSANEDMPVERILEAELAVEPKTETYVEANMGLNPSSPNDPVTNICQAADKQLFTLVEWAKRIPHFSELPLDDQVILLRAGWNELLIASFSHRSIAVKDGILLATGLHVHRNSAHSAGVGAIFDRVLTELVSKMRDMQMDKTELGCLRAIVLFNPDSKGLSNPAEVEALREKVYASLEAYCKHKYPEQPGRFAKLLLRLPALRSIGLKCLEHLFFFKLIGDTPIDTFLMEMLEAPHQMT
Sequence of RARb:RXRa (P10826 whole entry, chain 1 of 2): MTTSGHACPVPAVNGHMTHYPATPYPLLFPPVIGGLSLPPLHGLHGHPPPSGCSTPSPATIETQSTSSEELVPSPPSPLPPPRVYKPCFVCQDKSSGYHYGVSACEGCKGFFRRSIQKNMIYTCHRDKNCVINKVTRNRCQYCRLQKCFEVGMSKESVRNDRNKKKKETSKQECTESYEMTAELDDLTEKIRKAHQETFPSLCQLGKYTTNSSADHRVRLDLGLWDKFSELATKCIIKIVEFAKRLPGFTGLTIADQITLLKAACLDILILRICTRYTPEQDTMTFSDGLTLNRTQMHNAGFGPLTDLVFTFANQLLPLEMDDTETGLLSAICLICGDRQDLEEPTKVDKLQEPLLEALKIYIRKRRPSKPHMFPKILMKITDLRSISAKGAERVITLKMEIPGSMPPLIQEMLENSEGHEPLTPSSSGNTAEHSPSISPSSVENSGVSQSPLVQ
Sequence of RARb:RXRa (P19793 whole entry, chain 2 of 2): as the sequence (P19793 whole entry, chain 2 of 2) above
Sequence of VDR:RXRa (P11473 whole entry, chain 1 of 2): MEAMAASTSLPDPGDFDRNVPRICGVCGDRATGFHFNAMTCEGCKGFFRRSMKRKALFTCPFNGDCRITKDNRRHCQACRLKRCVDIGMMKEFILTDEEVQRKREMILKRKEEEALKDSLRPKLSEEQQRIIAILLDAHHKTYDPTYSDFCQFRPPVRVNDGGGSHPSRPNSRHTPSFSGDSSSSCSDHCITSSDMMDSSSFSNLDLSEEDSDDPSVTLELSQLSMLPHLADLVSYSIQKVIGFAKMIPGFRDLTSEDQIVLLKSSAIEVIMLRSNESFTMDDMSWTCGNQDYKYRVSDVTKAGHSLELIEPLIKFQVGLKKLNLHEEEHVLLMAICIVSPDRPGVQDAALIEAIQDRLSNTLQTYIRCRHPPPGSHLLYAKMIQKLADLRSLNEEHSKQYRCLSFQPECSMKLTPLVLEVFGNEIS
Sequence of VDR:RXRa (P19793 whole entry, chain 2 of 2): as the sequence (P19793 whole entry, chain 2 of 2) above
Sequence of FXR:RXRa (Q96RI1 whole entry, chain 1 of 2): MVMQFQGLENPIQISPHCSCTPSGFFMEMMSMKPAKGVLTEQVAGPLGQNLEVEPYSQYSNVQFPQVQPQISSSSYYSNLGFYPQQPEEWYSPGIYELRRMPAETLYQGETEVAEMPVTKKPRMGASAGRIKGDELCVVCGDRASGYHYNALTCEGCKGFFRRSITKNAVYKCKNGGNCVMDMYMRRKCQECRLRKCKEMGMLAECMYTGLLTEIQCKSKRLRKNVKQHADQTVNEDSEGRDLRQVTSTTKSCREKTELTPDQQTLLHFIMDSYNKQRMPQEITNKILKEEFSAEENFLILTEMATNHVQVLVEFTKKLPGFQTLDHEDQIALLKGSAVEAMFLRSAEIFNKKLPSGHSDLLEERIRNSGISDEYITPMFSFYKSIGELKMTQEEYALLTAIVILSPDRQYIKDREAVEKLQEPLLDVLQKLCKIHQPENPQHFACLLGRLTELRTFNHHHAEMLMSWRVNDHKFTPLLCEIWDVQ
Sequence of FXR:RXRa (P19793 whole entry, chain 2 of 2): as the sequence (P19793 whole entry, chain 2 of 2) above
Sequence of RARg:RXRa (P13631 whole entry, chain 1 of 2): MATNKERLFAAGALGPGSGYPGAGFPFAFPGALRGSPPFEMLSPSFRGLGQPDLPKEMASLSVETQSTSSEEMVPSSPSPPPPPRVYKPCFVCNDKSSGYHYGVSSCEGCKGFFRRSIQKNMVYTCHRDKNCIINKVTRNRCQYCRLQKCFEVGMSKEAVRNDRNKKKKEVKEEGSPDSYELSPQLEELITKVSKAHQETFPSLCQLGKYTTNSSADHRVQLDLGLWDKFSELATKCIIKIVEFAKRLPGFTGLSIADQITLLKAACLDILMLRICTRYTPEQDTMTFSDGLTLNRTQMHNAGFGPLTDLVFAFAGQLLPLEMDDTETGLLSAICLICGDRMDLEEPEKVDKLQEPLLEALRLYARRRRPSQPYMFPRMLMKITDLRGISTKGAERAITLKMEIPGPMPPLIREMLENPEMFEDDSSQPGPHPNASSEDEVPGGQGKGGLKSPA
Sequence of RARg:RXRa (P19793 whole entry, chain 2 of 2): as the sequence (P19793 whole entry, chain 2 of 2) above

Row | Binder | binding signal [1] | binding signal [2] | binding signal [3] | binding signal [4] | binding signal [5]
1 | NRC3_random_hg19_115_o1 (dsDNA) DNA 1: GCATCACCTGAGGCCAGGAATTCGAACCAGCATGGCGCGATTGACAGCGTAGAATGAAGG DNA 2: CCTTCATTCTACGCTGTCAATCGCGCCATGCTGGTTCGAATTCCTGGCCTCAGGTGATGC | -0.3 PBM z-score against 500 random probes | -0.52 PBM z-score against 500 random probes |  |  | 
2 | NRC3_random_hg19_190_o1 (dsDNA) DNA 1: GCGCCTCAATTCTAACTTGATTGCTTCCCTAGAGGCGCGATTGACAGCGTAGAATGAAGG DNA 2: CCTTCATTCTACGCTGTCAATCGCGCCTCTAGGGAAGCAATCAAGTTAGAATTGAGGCGC | 0.11 PBM z-score against 500 random probes |  | 0.46 PBM z-score against 500 random probes |  | 
3 | NRC3_wobSeed89_DR3_C26G_o1 (dsDNA) DNA 1: GCCTATGTAGGTTAAGGGGGTCATTGAGTTTGAAAGGCGATTGACAGCGTAGAATGAAGG DNA 2: CCTTCATTCTACGCTGTCAATCGCCTTTCAAACTCAATGACCCCCTTAACCTACATAGGC | 8.2 PBM z-score against 500 random probes | 6.55 PBM z-score against 500 random probes |  |  | 
4 | NRC3_random_hg19_55_o1 (dsDNA) DNA 1: GCTTGAACGCCTGCTTTGTGCTGATGCAGATCCAGAGCGATTGACAGCGTAGAATGAAGG DNA 2: CCTTCATTCTACGCTGTCAATCGCTCTGGATCTGCATCAGCACAAAGCAGGCGTTCAAGC | -0.59 PBM z-score against 500 random probes |  | -0.23 PBM z-score against 500 random probes |  | 
5 | NRC3_random_hg19_418_o1 (dsDNA) DNA 1: GCTGTGAGCATCACTTCTTGTTGGTCAGAGTAAGAGGCGATTGACAGCGTAGAATGAAGG DNA 2: CCTTCATTCTACGCTGTCAATCGCCTCTTACTCTGACCAACAAGAAGTGATGCTCACAGC | -0.69 PBM z-score against 500 random probes |  |  | -0.39 PBM z-score against 500 random probes | 
6 | NRC3_wobSeed124_DR5_o1 (dsDNA) DNA 1: GCCCTACTGGGCCATTCAGAGGTCATTGATCATATGGCGATTGACAGCGTAGAATGAAGG DNA 2: CCTTCATTCTACGCTGTCAATCGCCATATGATCAATGACCTCTGAATGGCCCAGTAGGGC | 3.94 PBM z-score against 500 random probes |  |  | 3.04 PBM z-score against 500 random probes | 
7 | NRC3_wobSeed124_DR5_C13G_o1 (dsDNA) DNA 1: GCCCTACTGGGCGATTCAGAGGTCATTGATCATATGGCGATTGACAGCGTAGAATGAAGG DNA 2: CCTTCATTCTACGCTGTCAATCGCCATATGATCAATGACCTCTGAATCGCCCAGTAGGGC | 3.28 PBM z-score against 500 random probes | 3.07 PBM z-score against 500 random probes |  |  | 
8 | NRC3_wobSeed123_DR5_G26A_o1 (dsDNA) DNA 1: GCCCTCGGAGGACAACAGGAGGTCAAAGCTGCCAGAGCGATTGACAGCGTAGAATGAAGG DNA 2: CCTTCATTCTACGCTGTCAATCGCTCTGGCAGCTTTGACCTCCTGTTGTCCTCCGAGGGC | 3.35 PBM z-score against 500 random probes |  |  |  | 4.36 PBM z-score against 500 random probes
9 | NRC3_random_hg19_438_o1 (dsDNA) DNA 1: GCTGTCGCCATCAAGCTACCATTGACTTTCTTCACAGCGATTGACAGCGTAGAATGAAGG DNA 2: CCTTCATTCTACGCTGTCAATCGCTGTGAAGAAAGTCAATGGTAGCTTGATGGCGACAGC | -0.03 PBM z-score against 500 random probes | 0.12 PBM z-score against 500 random probes |  |  | 
10 | NRC3_wobSeed77_DR3_C8A_o1 (dsDNA) DNA 1: GCACTTAAGGGTCAACGAGGTTATAGCACGCGTATAGCGATTGACAGCGTAGAATGAAGG DNA 2: CCTTCATTCTACGCTGTCAATCGCTATACGCGTGCTATAACCTCGTTGACCCTTAAGTGC | 8.17 PBM z-score against 500 random probes |  | 7.94 PBM z-score against 500 random probes |  | 
11 | NRC3_random_hg19_426_o1 (dsDNA) DNA 1: GCTGGAATCCTAGTGCTTTGGGAGGCTGAGGCTGGAGCGATTGACAGCGTAGAATGAAGG DNA 2: CCTTCATTCTACGCTGTCAATCGCTCCAGCCTCAGCCTCCCAAAGCACTAGGATTCCAGC | -0.9 PBM z-score against 500 random probes | -0.97 PBM z-score against 500 random probes |  |  | 
12 | NRC3_random_hg19_337_o1 (dsDNA) DNA 1: GCGTATTGAGCATCTATGATCTGCCAGTTAGGCTGCGCGATTGACAGCGTAGAATGAAGG DNA 2: CCTTCATTCTACGCTGTCAATCGCGCAGCCTAACTGGCAGATCATAGATGCTCAATACGC | -0.54 PBM z-score against 500 random probes |  |  |  | 
13 | NRC3_random_hg19_108_o1 (dsDNA) DNA 1: GCTAGGAATGTGAGTTTCTCTAAGTTCTATTCCTGGGCGATTGACAGCGTAGAATGAAGG DNA 2: CCTTCATTCTACGCTGTCAATCGCCCAGGAATAGAACTTAGAGAAACTCACATTCCTAGC | 0.17 PBM z-score against 500 random probes |  |  |  | 0.22 PBM z-score against 500 random probes
14 | NRC3_random_hg19_27_o1 (dsDNA) DNA 1: GCTCCCTGCCCAGTTCTGTGCAGGGTGTGCGTGTCTGCGATTGACAGCGTAGAATGAAGG DNA 2: CCTTCATTCTACGCTGTCAATCGCAGACACGCACACCCTGCACAGAACTGGGCAGGGAGC | -0.37 PBM z-score against 500 random probes |  | -0.32 PBM z-score against 500 random probes | -0.46 PBM z-score against 500 random probes | 
15 | NRC3_random_hg19_353_o1 (dsDNA) DNA 1: GCATAGAACTTAACTACCACCTCTCATTACCTGGAGGCGATTGACAGCGTAGAATGAAGG DNA 2: CCTTCATTCTACGCTGTCAATCGCCTCCAGGTAATGAGAGGTGGTAGTTAAGTTCTATGC | 0.31 PBM z-score against 500 random probes | -0.07 PBM z-score against 500 random probes |  |  | 
16 | NRC3_random_hg19_3_o1 (dsDNA) DNA 1: GCGCCAGAGGTGGAATGATATGATATGTCTCTGTGTGCGATTGACAGCGTAGAATGAAGG DNA 2: CCTTCATTCTACGCTGTCAATCGCACACAGAGACATATCATATCATTCCACCTCTGGCGC | -0.61 PBM z-score against 500 random probes |  |  |  | 
17 | NRC3_random_hg19_260_o1 (dsDNA) DNA 1: GCGGAAGTCCTCTTTGCCACATTTCCAACAGATGGCGCGATTGACAGCGTAGAATGAAGG DNA 2: CCTTCATTCTACGCTGTCAATCGCGCCATCTGTTGGAAATGTGGCAAAGAGGACTTCCGC | 0.14 PBM z-score against 500 random probes | 0.42 PBM z-score against 500 random probes |  |  | 
18 | NRC3_random_hg19_132_o1 (dsDNA) DNA 1: GCCAATGCCAGCTACCAGGAGGCTGAGGTGTGAGAGGCGATTGACAGCGTAGAATGAAGG DNA 2: CCTTCATTCTACGCTGTCAATCGCCTCTCACACCTCAGCCTCCTGGTAGCTGGCATTGGC | -0.75 PBM z-score against 500 random probes |  |  |  | -0.61 PBM z-score against 500 random probes
19 | NRC3_random_hg19_107_o1 (dsDNA) DNA 1: GCCTCAGGCTGAGTTGTGGTAGTGTAATCATAGCTCGCGATTGACAGCGTAGAATGAAGG DNA 2: CCTTCATTCTACGCTGTCAATCGCGAGCTATGATTACACTACCACAACTCAGCCTGAGGC | -0.64 PBM z-score against 500 random probes |  |  |  | -0.79 PBM z-score against 500 random probes
20 | NRC3_random_hg19_461_o1 (dsDNA) DNA 1: GCGCCTGACTCCAGCCCACAGGCTGGGAGTGGAAGTGCGATTGACAGCGTAGAATGAAGG DNA 2: CCTTCATTCTACGCTGTCAATCGCACTTCCACTCCCAGCCTGTGGGCTGGAGTCAGGCGC | -1.25 PBM z-score against 500 random probes |  |  |  | 
21 | NRC3_random_hg19_358_o1 (dsDNA) DNA 1: GCCTAGCAGCAACCAACCACAATGGCAAGGATGTAGGCGATTGACAGCGTAGAATGAAGG DNA 2: CCTTCATTCTACGCTGTCAATCGCCTACATCCTTGCCATTGTGGTTGGTTGCTGCTAGGC | -0.81 PBM z-score against 500 random probes |  |  |  | -0.41 PBM z-score against 500 random probes
22 | NRC3_random_hg19_335_o1 (dsDNA) DNA 1: GCATCTATGTGCATATGGAAGAAAGGAATGCAAGATGCGATTGACAGCGTAGAATGAAGG DNA 2: CCTTCATTCTACGCTGTCAATCGCATCTTGCATTCCTTTCTTCCATATGCACATAGATGC | -0.62 PBM z-score against 500 random probes |  |  |  | 
23 | NRC3_random_hg19_247_o1 (dsDNA) DNA 1: GCGCATGCCACAGGACTGGTAGGCAGCTCCATCTGCGCGATTGACAGCGTAGAATGAAGG DNA 2: CCTTCATTCTACGCTGTCAATCGCGCAGATGGAGCTGCCTACCAGTCCTGTGGCATGCGC | -0.83 PBM z-score against 500 random probes |  |  |  | 
